Experimental data taken from patent US20220365073A1 (TECHNION RESEARCH AND DEVELOPMENT FOUNDATION, published 2022).

Molecular target: Ubiquitin-B+1 (UBB+1), untagged, expressed in HEK293FT cells
Assay: co-IP with anti-UBB+1 antibody from HEK293FT cells, immunoblot; MS/MS of co-purified proteins

binding result: binds
B1: UCH-L1 (Ubiquitin C-terminal hydrolase L1), endogenous in HEK293FT cells (enzyme, UniProt P09936 1-220, looked up)
chain: MQLKPMEINPEMLNKVLSRLGVAGQWRFVDVLGLEEESLGSVPAPACALLLLFPLTAQHENFRKKQIEELKGQEVSPKVYFMKQTIGNSCGTIGLIHAVANNQDKLGFEDGSVLKQFLSETEKMSPEDRAKCFEKNEAIQAAHDAVAQEGQCRVDDKVNFHFILFNNVDGHLYELDGRMPFPVNHGASSEDTLLKDAAKVCREFTEREQGEVRFSAVALC
notes: Endogenous protein in the lysate of HEK293FT (human) cells; also called UCL-H1; endogenous UCH-L1
